The assay deals with Ino80 carrying a C-terminal 2xFlag-tag (S. cerevisiae) (UniProt P53115).
UniProt P53115, sequence (P53115 whole entry): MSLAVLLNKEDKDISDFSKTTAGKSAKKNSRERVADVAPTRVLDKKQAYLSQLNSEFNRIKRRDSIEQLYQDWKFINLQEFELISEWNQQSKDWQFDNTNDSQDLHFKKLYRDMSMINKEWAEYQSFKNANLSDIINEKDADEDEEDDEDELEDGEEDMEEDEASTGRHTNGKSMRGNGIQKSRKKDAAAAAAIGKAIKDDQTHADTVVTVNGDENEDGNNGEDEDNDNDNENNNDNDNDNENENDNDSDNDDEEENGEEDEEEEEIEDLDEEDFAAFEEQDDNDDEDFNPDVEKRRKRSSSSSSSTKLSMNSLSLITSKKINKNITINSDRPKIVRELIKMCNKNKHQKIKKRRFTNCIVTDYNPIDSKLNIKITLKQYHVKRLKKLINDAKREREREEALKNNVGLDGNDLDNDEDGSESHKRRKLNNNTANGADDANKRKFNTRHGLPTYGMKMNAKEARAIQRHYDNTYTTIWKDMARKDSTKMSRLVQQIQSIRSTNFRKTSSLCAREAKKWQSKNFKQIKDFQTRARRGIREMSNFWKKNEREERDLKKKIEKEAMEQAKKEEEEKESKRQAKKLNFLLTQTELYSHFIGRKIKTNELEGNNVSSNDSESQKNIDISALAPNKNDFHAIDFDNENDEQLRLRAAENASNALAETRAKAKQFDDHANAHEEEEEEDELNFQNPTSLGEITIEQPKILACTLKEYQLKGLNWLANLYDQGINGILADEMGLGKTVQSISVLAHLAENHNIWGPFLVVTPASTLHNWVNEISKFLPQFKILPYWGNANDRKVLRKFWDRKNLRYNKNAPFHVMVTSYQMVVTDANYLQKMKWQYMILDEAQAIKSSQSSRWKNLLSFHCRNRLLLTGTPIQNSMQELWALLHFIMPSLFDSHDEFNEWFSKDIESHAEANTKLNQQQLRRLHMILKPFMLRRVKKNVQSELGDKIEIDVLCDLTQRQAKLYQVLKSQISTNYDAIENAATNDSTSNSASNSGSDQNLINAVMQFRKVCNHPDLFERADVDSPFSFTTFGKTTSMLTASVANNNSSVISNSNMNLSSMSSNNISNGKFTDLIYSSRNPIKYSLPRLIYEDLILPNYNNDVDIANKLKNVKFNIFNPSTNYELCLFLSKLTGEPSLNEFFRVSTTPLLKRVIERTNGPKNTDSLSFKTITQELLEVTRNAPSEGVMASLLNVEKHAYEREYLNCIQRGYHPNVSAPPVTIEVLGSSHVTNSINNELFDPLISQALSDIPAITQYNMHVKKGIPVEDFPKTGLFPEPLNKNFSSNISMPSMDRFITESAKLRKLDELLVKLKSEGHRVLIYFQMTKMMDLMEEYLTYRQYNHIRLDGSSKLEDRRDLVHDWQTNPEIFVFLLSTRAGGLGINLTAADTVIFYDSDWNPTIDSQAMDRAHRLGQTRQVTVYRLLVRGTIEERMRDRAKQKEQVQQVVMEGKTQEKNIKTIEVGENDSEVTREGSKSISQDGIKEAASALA

B1: S. cerevisiae Reb1 with a Streptavidin tag at the C terminus (natural protein)
chain: MPSGHNDKNANQESVEEAVLKYVGVGLDHQNHDPQLHTKDLENKHSKKQNIVESSSDVDVNNNDDSNRNEDNNDDSENISALNANESSSNVDHANSNEQHNAVMDWYLRQTAHNQQDDEDDENNNNTDNGNDSNNHFSQSDIVVDDDDDKNKKDAGVGVDDDHQSMAMAAVAAAYTLSKNNNNNNSIANDSNSRKRQHDNGNNHENSQKKRKNNNDDDDRQIGNVDPELTTLGDADDNDTNNDVIDRDQLVHKAIIDADSITQHPDFQQYLNTAADTDDNEKLKHIKDHLMRTHGLNHQNKNHNDDTDDLSNSTKQYSELQKDSMLDSSLNKSRNYMEVLPKVISQDTQPHQQKSPSHDNEAGSVDNSEISQLLQSAATKASSLVSLSSSSATPSTSRSNNSKAFDKAEDAALERFINEYEAIERLTRQQVCERIWSSDRPKDNFWNNIYKVLPYRSSSSIYKHMRRKYHIFEQRGKWTAEEEQELAKLCAEKEGQWAEIGKTLGRMPEDCRDRWRNYVKCGTNRASNRWSVEEEELLKKVISDMLEEAQQQQSQLHPNLLEEEQHLLQDDQNDHRNNDEDDDDTASAAAAAAAAIQEQQQLLQQKQQDDDDAIAAAAAAASSSLGDNKDEDKPHDSLGIQLDDNSQNSMVPAPSATSTHSKSLSNTIRRHNNKLRKSLMGNGKLDFKDIINWTIVSERMGGTRSRIQCRYKWNKLVKREAIAKIQTVKDDDMLWIFEKLRDLGITEDSQVDWDELAALKPGMKLNGLELKLCYERMKKKVKGYKQKSINEISKELVDYFSSNISMKTEN
Regarding B1, the NADH-based ATPase activity of the WT INO80 complex with yGL167c-NCP601 mononucleosomes, with against without Reb1 is 2 fold.

For the origin of these results see article PMC8163841.
